The record followed here is patent US8580556B2, “Sulfonylurea-responsive repressor proteins” (E. I. du Pont de Nemours and Company, priority 2008, dated 2013).

The subject of the experiment is tetA promoter (PtetA)-lacZ reporter in E. coli KM3. Type of experiment: cell-based. Conditions: for Control 84 hr (colony color intensity, background activity without inducer): M9 assay plates, no inducer, 84 hr at 30° C., colony color intensity by ImageJ.

Numbering of substitutions follows the chain as printed.

B1: L6-5G06 (protein)
chain: MGSRLDKSKVINSALELLNEVGIEGLTTRKLAQKLGVEQPTLYWHVKNKRALLDALAIEMMDRHQTHYCPLEGESWQDFLRNNAKSMRCALLSHRDGAKVCLGTRWTEQQYETAENQLAFLCQQGFSLENALYAVSAVRVFTLGCVLFDQELQVAKEERETPTTASMPPLLRQGWELKDHQGAEPAFLFGLELIICGLEKQLKCESGS
modifications: Sulfonylurea responsive repressor L6-5G06
For the molecule B1, the “0.2 ppm 48 hr/Control 84 hr” value turned out to be 4.9 and the “Control 84 hr (colony color intensity, background activity without inducer)” value worked out at 7.0.

B2: L6-5H12 (protein)
chain: B1 chain with Q65A, Q109K, V135M, L171V, G174A
modifications: Sulfonylurea responsive repressor L6-5H12
Regarding B2, the “0.2 ppm 48 hr/Control 84 hr” value was determined as 4.2 and the “Control 84 hr (colony color intensity, background activity without inducer)” value was found to be 5.7.

B3: L6-5H06 (protein)
chain: B1 chain with Y68I, Q109K, Q117M, L171V, G174A
modifications: Sulfonylurea responsive repressor L6-5H06
As to B3, the “0.2 ppm 48 hr/Control 84 hr” value is given as 2.7 and the “Control 84 hr (colony color intensity, background activity without inducer)” value stood at 5.1.

B4: L6-6F07 (protein)
chain: B1 chain with Q65A, Y68L, N83T, T113S, Q117M, V135M, L152S, G174A
modifications: Sulfonylurea responsive repressor L6-6F07
Take B4: the “0.2 ppm 48 hr/Control 84 hr” value came to 2.3 and the “Control 84 hr (colony color intensity, background activity without inducer)” value is recorded as 5.1.
